{"source": "patent CN114195889A", "about": "(NANJING FUJIEKANG BIOTECHNOLOGY CO LTD, dated 2022)", "target": "T1, 人源重组SARS-Cov-2-N蛋白 (SARS-CoV-2, UniProt P0DTC9 1-419)", "T1 construct": "range 1-419; also called SARS-Cov-2-N重组蛋白; 新冠病毒N蛋白", "test": "ELISA dose-response on coated N protein", "data": [{"binder": "纳米抗体1B2 (VHH, also called VHH4) VHH: ESGGGSVQAGGSLKLSCVAFGYTYTSGCMGWFRQAPGKGREGVATICNTDGTTAYANSVKGRFTISQDNAKNTVYLQMNSLKAEDSAMYYCAAGRTPYELASGGKNWGQGTQVTVSS", "values": [{"measurement": "binding result", "value": "binds"}]}]}
